In US11534461B2, “High affinity merkel cell polyomavirus T antigen-specific TCRS and uses thereof” (priority 2016, dated 2022):

Columns and labels:
[1] = tested on: peptide loaded HLA-A*02:01 K562 cells; assay: 4 hour chromium release assay, peptide loaded targets; assay type: cell-based; conditions: transduced CD8+ T cells
[2] = tested on: HLA-A*02:01 fibroblast cell lines transduced with MCPyV LT antigen; assay: 4 hour chromium release assay, LT antigen transduced targets; assay type: cell-based; conditions: transduced CD8+ T cells
[3] = tested on: peptide loaded HLA-A*02:01 K562 cells; assay: Proliferation of transduced T cells over 72 hours; assay type: cell-based; conditions: transduced CD8+ T cells
KLL-tetramer = KLL-tetramer staining of MCC1-transduced T cells after expansion; assay type: binding; conditions: CD8+ and CD4+ T cells transduced with codon-optimized TCR, expanded in culture for two weeks
[4] = tested on: peptide loaded HLA-A*02:01 K562 cells; assay: Effector cytokine secretion (IFNγ, IL-2, TNF) of transduced T cells; assay type: cell-based
Description: (A) CD8 T cells were successfully transduced with codon-optimized MCC-specific TCR (MCC1).
The polynucleotide of one of the patient-derived class I high avidity TCR clones (MCC1) was codon optimized and transduced into CD8+ T and examined for their ability to activate […].

B1: MCC1: patient-derived class I high avidity MCPyV T antigen KLL-specific TCR, codon optimized and transduced into T cells (protein)
alpha: RKEVEQDPGPFNVPEGATVAFNCTYSNSASQSFFWYRQDCRKEPKLLMSVYSSGNEDGRFTAQLNRASQYISLLIRDSKLSDSATYLCVVATYSGGGADGLTFGKGTHLIIQPDIQNPDPAVYQLRDSKSSDKSVCLFTDFDSQTNVSQSKDSDVYITDKCVLDMRSMDFKSNSAVAWSNKSDFACANAFNNSIIPEDTFFPSPESSCDVKLVEKSFETDTNLNFQNLSVIGFRILLLKVAGFNLLMTLRLWSS
beta: DAGITQSPRYKITETGRQVTLMCHQTWSHSYMFWYRQDLGHGLRLIYYSAAADITDKGEVPDGYVVSRSKTENFPLTLESATRSQTSVYFCASSSGNPSTDTQYFGPGTRLTVLDLKNVFPPEVAVFEPSEAEISHTQKATLVCLATGFYPDHVELSWWVNGKEVHSGVCTDPQPLKEQPALNDSRYCLSSRLRVSATFWQNPRNHFRCQVQFYGLSENDEWTQDRAKPVTQIVSAEAWGRADCGFTSESYQQGVLSATILYEILLGKATLYAVLVSALVLMAMVKRKDSRG
[1]
  specific killing of peptide loaded targets: specifically killed
[2]
  specific killing of MCPyV LT antigen transduced targets: specifically killed
[3]
  proliferation: readily proliferate
KLL-tetramer
  tetramer positivity after expansion: remained tetramer positive
[4]; saturating levels of peptide (5 μg/mL), CD4+ versus CD8+ T cells
  maximum percentage of transduced cells that secrete IFNγ, IL-2 and TNF: similar
[4]; transduced CD4+ T cells
  sensitivity to engage cytokine secretion: reduced sensitivity
[4]; transduced CD8+ T cells
  effector cytokine production: make effector cytokines
